Source: patent publication US20210040189A1 (Amgen, published 2021)
Where a chain is given by its changes, count along the chain named.

Experiments:
mouse DKK1 = biological target: T1, mouse DKK1 (mouse, UniProt O54908 32-272); test: KinExA 3000 equilibrium binding in solution
T1 construct: also called murine DKK1
T1 sequence: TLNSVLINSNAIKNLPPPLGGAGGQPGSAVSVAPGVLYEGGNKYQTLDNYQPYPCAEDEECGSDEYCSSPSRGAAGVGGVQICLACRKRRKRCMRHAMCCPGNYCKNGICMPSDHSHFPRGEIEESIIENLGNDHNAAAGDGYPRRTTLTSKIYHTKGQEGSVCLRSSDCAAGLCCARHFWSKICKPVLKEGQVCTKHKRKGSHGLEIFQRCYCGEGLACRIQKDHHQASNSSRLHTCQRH
Description: (§1) Accordingly, the affinity of several of these antibodies to DKK1 was further assessed by an equilibrium binding analysis using the more sensitive KinExAtm 3000. For these measurements, Reacti-Gel 6× beads (Pierce, Rockford, Ill.) were pre-coated with human, cynomologous or mouse DKK1 and blocked with BSA. One hundred pM, 300 pM, or 1000 pM of the antibody was mixed with various concentrations of human, mouse or cyno DKK1, ranging in concentration from 1 pM to 50 nM, and equilibrated at room temperature for 8 hours. The mixtures were then passed over the DKK1-coated beads. The amount of bead-bound anti-DKK1 antibody was quantified using goat anti-human-IgG antibody labeled with a fluorescent tag (Cy5; Jackson Immuno Research, West Grove, Pa.). The amount of fluorescent signal measured was proportional to the concentration of free anti-DKK1 antibody in each reaction mixture at equilibrium. The dissociation equilibrium constant (Kd) was obtained from nonlinear regression of the competition curves using a dual-curve one-site homogeneous binding model using the KinExA software.

human DKK1 [1] = biological target: T2, human DKK1 (human, UniProt O94907 32-266); test: KinExA 3000 equilibrium binding in solution
T2 construct: also called huDKK1; hDKK1
T2 sequence: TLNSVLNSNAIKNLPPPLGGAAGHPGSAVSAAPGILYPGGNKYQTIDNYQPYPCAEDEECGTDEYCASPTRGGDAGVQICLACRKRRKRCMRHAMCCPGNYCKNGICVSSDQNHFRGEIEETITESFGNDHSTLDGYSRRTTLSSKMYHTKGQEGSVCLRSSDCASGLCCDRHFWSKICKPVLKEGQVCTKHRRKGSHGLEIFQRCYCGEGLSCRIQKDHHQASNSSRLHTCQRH
Description: as §1

human DKK1 [2] = biological target: T2, human DKK1; test: BiaCore 2000
Description: BiaCore allowed us to determine the kd of the selected antibodies.

huDkk4 = biological target: T3, huDkk4 (human, UniProt Q9UBT3 19-224, limits assumed); test: BiaCore
T3 sequence (looked up): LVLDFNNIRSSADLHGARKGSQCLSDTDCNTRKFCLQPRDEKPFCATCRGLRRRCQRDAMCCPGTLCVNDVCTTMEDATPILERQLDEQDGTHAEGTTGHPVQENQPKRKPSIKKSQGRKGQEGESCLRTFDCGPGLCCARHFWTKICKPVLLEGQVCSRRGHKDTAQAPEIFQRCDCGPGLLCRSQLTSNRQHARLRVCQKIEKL

T2 = biological target: T4, T2 (human); test: BiaCore
T4 construct: Five peptides held together by the five disulfide bonds of D1; from trypsin digestion of HuDKK1 alone; also called tryptic D1 fragment T2
T4 chain 1: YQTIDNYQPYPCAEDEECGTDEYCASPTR
T4 chain 2: GGDAGVQICLACR
T4 chain 3: CMR
T4 chain 4: HAMCCPGNYCK
T4 chain 5: NGICVSSDQNHFR

CNBr1 = biological target: T5, CNBr1 (human, UniProt O94907 207-266); test: BiaCore
T5 construct: Two peptides held together by 5 disulfide bonds; also called CNBr fragment of hDKK1 representing disulfide domain D2; not shown: added C-terminal flag peptide (positions 267-274)
T5 sequence 1: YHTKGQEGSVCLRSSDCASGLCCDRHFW
T5 sequence 2: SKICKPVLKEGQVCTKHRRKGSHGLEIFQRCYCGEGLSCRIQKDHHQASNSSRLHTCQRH

AspN2 = biological target: T6, AspN2 (human); test: BiaCore
T6 construct: a separate HPLC peak
T6 chain 1: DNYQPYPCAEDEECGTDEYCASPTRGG
T6 chain 2: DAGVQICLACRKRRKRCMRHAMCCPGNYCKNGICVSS

AspN1 = biological target: T7, AspN1 (human); test: BiaCore
T7 construct: Two peptides held together by five disulfide bonds in D1
T7 chain 1: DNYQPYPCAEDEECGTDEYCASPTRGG
T7 chain 2: T6 chain 2

T3 = biological target: T8, T3 (human); test: BiaCore
T8 construct: a separate HPLC peak; also called tryptic D1 fragment T3
T8 chain 1: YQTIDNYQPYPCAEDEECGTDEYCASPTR
T8 chain 2: GGDAGVQICLACR
T8 chain 3: CMR
T8 chain 4: HAMCCPGNYCK
T8 chain 5: NGICVSSDQNHFR

human DKK1 [3] = biological target: T2, human DKK1; test: cell-based or functional assay
T4 = biological target: T9, T4 (human); test: BiaCore, competition with surface-bound DKK1
T9 construct: also called tryptic D1 peptide T4
T9 chain: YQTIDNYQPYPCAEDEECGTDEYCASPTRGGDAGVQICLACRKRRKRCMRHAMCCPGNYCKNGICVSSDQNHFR

cynomologous DKK1 = biological target: T10, cynomologous DKK1 (cynomolgus monkey, UniProt O94907 32-266 (human entry), limits assumed); test: KinExA 3000 equilibrium binding in solution
T10 construct: also called cyno DKK1
T10 chain: T2 sequence with H114N, T150S, S166T, D171A
Description: as §1

B1: 5.25.1 (antibody, V domains shown)
VH: QVQLVQSGAEVKKPGASVKVSCKASGYTFTSYDINWVRQATGQGLEWMGWMDPNSGNTGYAQKFQGRVTMTRNTSISTAFMELSSLRSEDTAVYYCARTDYFYFGMDVWGQGTTVTVSS
VL: DIQMTQSPSSLSASVGDRVTITCQASQDISKDLNWYQQKPGKAPRLLIYDASNLETGVPSRFSGSGSGTDFTFTISSLQPEDIATFYCQQYDHLPIAFGQGTRLEIK
notes: Fully human hybridoma IgG, kappa (Vk)
- Kd (mouse DKK1): 0.15 nM
- Kd (human DKK1 [1]): 0.003 nM
- koff (human DKK1 [2]): < 2e-05 s⁻¹
- binding result (huDkk4): no binding
- binding result (T2): no binding
- binding result (CNBr1): no binding
- binding result (AspN2): binds
- binding result (AspN1): binds
- binding result (T3): no binding
- ST2 EC50 (human DKK1 [3]): 5.96 nM
- TCF EC50 (human DKK1 [3]): 1.88 nM
- binding result (T4): binds

B2: 5.32.1 (antibody, V domains shown)
VH: QVQLVQSGAEVKKPGASVKVSCKASGFTFTSYDISWVRQATGLGLEWMGWMNPSSGYTGYAQNFQGRVTMTWNTSISTVYMELSSLRSEDTAVYYCARTDYYYYGMDVWGRGTTVTVSS
VL: B1 VL with R45K, F86Y, H93D, A97T
notes: as for B1
- Kd (mouse DKK1): 0.04 nM
- Kd (human DKK1 [1]): 0.003 nM
- koff (human DKK1 [2]): 0.000191 s⁻¹
- binding result (huDkk4): no binding
- ST2 EC50 (human DKK1 [3]): 3.48 nM
- TCF EC50 (human DKK1 [3]): 1.01 nM

B3: 6.116.6 (antibody, V domains shown)
VH: QVQLVESGGGVVQPGRSLRLSCAASGFTFSGYGMHWVRQAPGKGLEWVAVISYDGNDKYYADSVKGRFTISRDNAKNTLYLQMNSLRAEDTAVYYCARELRVLWGQGTLVTVSS
VL: DIVMTQTPLSLSVTPGQPASISCKSGQSLLHNDGKTYLYWYLQKPGQPPQFLIYEVSNRFSRVPDRFSGSGSGTDFTLKISRVEAEDVGIYYCMQSIQLPWTFGQGTQVEIK
notes: Fully human IgG, kappa (Vk)
- Kd (cynomologous DKK1): 0.04 nM
- Kd (mouse DKK1): 0.04 nM
- Kd (human DKK1 [1]): 0.025 nM
- koff (human DKK1 [2]): 2e-05 s⁻¹
- ST2 EC50 (human DKK1 [3]): 2.77 nM
- TCF EC50 (human DKK1 [3]): 4.69 nM

B4: 2.40.1 (antibody, V domains shown)
VH: QVQLVESGGGVVQPGRSLRLSCAASGFTFSSYGMHWVRQAPGKGLGWVAVISYDGSDKYYADSVKGRFTISRDNSKNTLYLQMNSLRAEDTAVYYCARDLVDTAMPWGQGTTVTVSS
VL: B3 VL with T7S, G26S, N32S, F51L, R62G, I90V, L99V, Q108K
notes: as for B1
- Kd (cynomologous DKK1): 0.22 nM
- Kd (mouse DKK1): 0.48 nM
- Kd (human DKK1 [1]): 0.22 nM
- koff (human DKK1 [2]): 6.27e-05 s⁻¹
- ST2 EC50 (human DKK1 [3]): 2.47 nM
- TCF EC50 (human DKK1 [3]): 1.28 nM

B5: 6.37.5 (antibody, V domains shown)
VH: B3 VH
VL: B3 VL with N32S, K79R
notes: Fully human IgG, kappa (Vk)
- Kd (cynomologous DKK1): 0.035 nM
- Kd (mouse DKK1): 0.05 nM
- Kd (human DKK1 [1]): 0.03 nM
- koff (human DKK1 [2]): 4e-05 s⁻¹
- ST2 EC50 (human DKK1 [3]): 3.98 nM
- TCF EC50 (human DKK1 [3]): 6.57 nM
